Values of other authors in publication PMC10991417.

Biological target: Vasa CTD (Drosophila melanogaster) (UniProt P09052)
Sequence of UniProt P09052 (P09052 463-623): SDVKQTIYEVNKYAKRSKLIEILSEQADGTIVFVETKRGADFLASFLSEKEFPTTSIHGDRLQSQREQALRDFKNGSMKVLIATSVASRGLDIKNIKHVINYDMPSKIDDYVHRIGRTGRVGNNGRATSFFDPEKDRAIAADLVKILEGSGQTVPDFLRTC

Substance: Oskar eLOTUS (from UniProt P25158)
- Kd: 10 µM
